Results: paper doi:10.1101/419911

Columns and labels:
AP2M1 160-435 = AP2M1 160-435 (UniProt Q96CW1); experiment: isothermal titration calorimetry; conditions: reference: unphosphorylated peptide YMPMS; sites S616
[1] = biological target: AP2M1 (residues 160-435) (human) (UniProt Q96CW1); experiment: ITC

Chain of UniProt Q96CW1 (Q96CW1 160-435): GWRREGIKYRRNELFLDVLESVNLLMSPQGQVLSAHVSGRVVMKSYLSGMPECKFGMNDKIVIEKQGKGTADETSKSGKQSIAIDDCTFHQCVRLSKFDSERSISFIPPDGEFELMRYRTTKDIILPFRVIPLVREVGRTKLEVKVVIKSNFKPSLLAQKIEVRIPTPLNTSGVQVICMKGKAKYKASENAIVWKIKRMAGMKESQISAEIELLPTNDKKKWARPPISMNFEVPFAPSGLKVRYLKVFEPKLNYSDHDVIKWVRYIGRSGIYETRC

Substance | KD (AP2M1 160-435) | Kd [1]
IRS1 607-620 (from UniProt P35568) YMPMpS peptide (pS-IRS1) | stronger; reference 2.03 µM | 
IRS1 peptide YMPMS (unphosphorylated) |  | 2030 nM
IRS1 peptide YMPMpS (phospho-S616), pS-IRS1 |  | 280 nM
